Test results taken from patent US20240270846A1 (published 2024).
Where a chain is given by its changes, count along the chain named.

B1: GPC3 ERY22-B (bispecific antibody, human IgG1, kappa, L234A L235A, N297A)
heavy 1: DIVMTQSPLSLPVTPGEPASISCRSSQSLVHSNRNTYLHWYQQKPGQAPRLLIYKVSNRFSGVPDRFSGSGSGTDFTLKISRVEAEDVGVYYCSQNTHVPPTFGQGTKLEIKSSASTKGPSVFPLAPSSKSTSGGTAALGCLVKDYFPEPVTVSWNSGALTSGVHTFPAVLQSSGLYSLSSVVTVPSSSLGTQTYICNVNHKPSNTKVDKKVEPKSCDKTHTCPPCPAPEAAGGPSVFLFPPKPKDTLMISRTPEVTCVVVDVSHEDPEVKFNWYVDGVEVHNAKTKPREEQYASTYRVVSVLTVLHQDWLNGKEYKCKVSNKALPAPIEKTISKAKGQPREPQVCTLPPSRDELTKNQVSLWCLVKGFYPSDIAVEWESNGQPENNYKTTPPVLDSDGSFFLYSKLTVDKSRWQQGNVFSCSVMHEALHNHYTQKSLSLSPHHHHHHHH
light 1: QVQLVQSGAEVKKPGASVKVSCKASGYTFTDYEMHWIRQPPGQGLEWIGAIDPKTGDTAYSQKFKGRVTLTADKSTSTAYMELSSLTSEDTAVYYCTRFYSYTYWGQGTLVTVSSASVAAPSVFIFPPSDEQLKSGTASVVCLLNNFYPREAKVQWKVDNALQSGNSQESVTEQDSKDSTYSLSSTLTLSKADYEKHKVYACEVTHQGLSSPVTKSFNRGEC
heavy 2: QVQLQQWGAGLLKPSETLSLTCAVYGGSFSGYYWSWIRQSPEKGLEWIGEINHGGYVTYNPSLESRVTISVDTSKNQFSLKLSSVTAADTAVYYCARDYGPGNYDWYFDLWGRGTLVTVSSASTKGPSVFPLAPSSKSTSGGTAALGCLVKDYFPEPVTVSWNSGALTSGVHTFPAVLQSSGLYSLSSVVTVPSSSLGTQTYICNVNHKPSNTKVDKKVEPKSCDKTHTCPPCPAPEAAGGPSVFLFPPKPKDTLMISRTPEVTCVVVDVSHEDPEVKFNWYVDGVEVHNAKTKPREEQYASTYRVVSVLTVLHQDWLNGKEYKCKVSNKALPAPIEKTISKAKGQPREPQVYTLPPSRCELTKNQVSLSCAVKGFYPSDIAVEWESNGQPENNYKTTPPVLDSDGSFFLVSKLTVDKSRWQQGNVFSCSVMHEALHNHYTQKSLSLSP
light 2: not shown
B2: GPC3 ERY22-dBBDu_183/L063 (bispecific antibody, human IgG1, kappa, L234A L235A, N297A)
heavy 1: B1 heavy 1
light 1: B1 light 1
heavy 2: QVQLVESGGGLVQPGRSLRLSCAASGFTFSNAWMHWVRQAPGKGLEWVAQIKDKGNAYAAYYAPSVKGRFTISRDDSKNSIYLQMNSLKTEDTAVYYCHYVHYASASTVLPAFGVDAWGQGTTVTVSSASTKGPSVFPLAPSSKSTSGGTAALGCLVKDYFPEPVTVSWNSGALTSGVHTFPAVLQSSGLYSLSSVVTVPSSSLGTQTYICNVNHKPSNTKVDKKVEPKSCDKTHTCPPCPAPEAAGGPSVFLFPPKPKDTLMISRTPEVTCVVVDVSHEDPEVKFNWYVDGVEVHNAKTKPREEQYASTYRVVSVLTVLHQDWLNGKEYKCKVSNKALPAPIEKTISKAKGQPREPQVYTLPPSRCELTKNQVSLSCAVKGFYPSDIAVEWESNGQPENNYKTTPPVLDSDGSFFLVSKLTVDKSRWQQGNVFSCSVMHEALHNHYTQKSLSLSPDYKDDDDK
light 2: DIVMTQSPLSLPVTPGEPASISCRSSQELVHTNRHTYLHWYQQKPGQAPRLLIYKVSNRFPGVPDRFSGSGSGTDFTLKISRVEAEDVGVYYCAQGTQVPFTFGQGTKLEIKRTVAAPSVFIFPPSDEQLKSGTASVVCLLNNFYPREAKVQWKVDNALQSGNSQESVTEQDSKDSTYSLSSTLTLSKADYEKHKVYACEVTHQGLSSPVTKSFNRGEC
B3: GPC3 ERY22-dBBDu_183/L072 (bispecific antibody, human IgG1, kappa, L234A L235A, N297A)
heavy 1: B1 heavy 1
light 1: B1 light 1
heavy 2: B2 heavy 2
light 2: B2 light 2 with R24Q, S25A, T32M, H35N, Q98S
B4: GPC3 ERY22-dBBDu_167/L091 (bispecific antibody, human IgG1, kappa, L234A L235A, N297A)
heavy 1: B1 heavy 1
light 1: B1 light 1
heavy 2: B2 heavy 2 with A57L, S107G, T108G, V109G, A112G
light 2: B2 light 2 with R24S, S25A, Q27E, E28S, V30L, T32N, K55R, P61N, A94G
B5: GPC3 ERY22-dBBDu_186/L096 (bispecific antibody, human IgG1, kappa, L234A L235A, N297A)
heavy 1: B1 heavy 1
light 1: B1 light 1
heavy 2: B2 heavy 2 with K54R, G55S, A57Q, A60T, S105Q
light 2: B2 light 2 with S25T, T32I, H35Y, T36I, Y37F, S57Y, P61Q, Q98S, F101Y
B6: GPC3 ERY22-dBBDu_186/L098 (bispecific antibody, human IgG1, kappa, L234A L235A, N297A)
heavy 1: B1 heavy 1
light 1: B1 light 1
heavy 2: B2 heavy 2 with K54R, G55S, A57Q, A60T, S105Q
light 2: B2 light 2 with R24A, S25A, Q27E, T32I, H35Y, T36I, Y37F, P61I, T97S
B7: CE115HA000 Y100aS one-arm antibody (antibody, human IgG1, kappa, L234A L235A, N297A, name in Kabat numbering)
heavy: QVQLVESGGGVVQPGRSLRLSCAASGFTFSNAWMHWVRQAPGKGLEWVAQIKAKSNNYATYYAESVKGRFTISRDDSKNSLYLQMNSLKTEDTAVYYCRYVHYGAYSGVDAWGQGTTVTVSSASTKGPSVFPLAPSSKSTSGGTAALGCLVKDYFPEPVTVSWNSGALTSGVHTFPAVLQSSGLYSLSSVVTVPSSSLGTQTYICNVNHKPSNTKVDKKVEPKSCDKTHTCPPCPAPEAAGGPSVFLFPPKPKDTLMISRTPEVTCVVVDVSHEDPEVKFNWYVDGVEVHNAKTKPREEQYASTYRVVSVLTVLHQDWLNGKEYKCKVSNKALPAPIEKTISKAKGQPREPQVYTLPPSRCELTKNQVSLSCAVKGFYPSDIAVEWESNGQPENNYKTTPPVLDSDGSFFLVSKLTVDKSRWQQGNVFSCSVMHEALHNHYTQKSLSLSPDYKDDDDK
chain: EPKSSDKTHTCPPCPAPELLGGPSVFLFPPKPKDTLMISRTPEVTCVVVDVSHEDPEVKFNWYVDGVEVHNAKTKPREEQYNSTYRVVSVLTVLHQDWLNGKEYKCKVSNKALPAPIEKTISKAKGQPREPQVCTLPPSRDELTKNQVSLWCLVKGFYPSDIAVEWESNGQPENNYKTTPPVLDSDGSFFLYSKLTVDKSRWQQGNVFSCSVMHEALHNRYTQKSLSLSP
light: B2 light 2 with E28S, T32S, H35N, P61S, A94G, F101Y
notes: one-arm antibody

Molecular target: human CD137 expressed constitutively on the B cell strain HDLM-2 (human, UniProt Q07011 24-255)
Assay: cell-based or functional assay

Sequence of human CD137 expressed constitutively on the B cell strain HDLM-2 (Q07011 24-255): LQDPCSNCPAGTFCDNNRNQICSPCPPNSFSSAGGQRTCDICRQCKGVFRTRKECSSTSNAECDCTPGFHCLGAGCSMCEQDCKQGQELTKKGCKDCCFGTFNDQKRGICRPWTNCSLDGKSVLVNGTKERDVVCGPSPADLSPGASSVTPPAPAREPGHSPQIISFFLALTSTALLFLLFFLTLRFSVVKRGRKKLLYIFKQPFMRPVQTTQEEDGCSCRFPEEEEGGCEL

Going from B1 to B2, the “Agonistic activity compared to B, antibody 6 µg/mL” value falls from 100% to -1.27%.

Compared with B3, B4 is lower in “Agonistic activity compared to B, antibody 6 µg/mL” value: 3.21% for the first, -2.21% for the second.

Compared with B5, B6 is lower in “Agonistic activity compared to B, antibody 6 µg/mL” value: 19% for the first, 13.9% for the second.

First: B1
Second: B2
The “Agonistic activity compared to B, antibody 30 µg/mL” value of the first is higher: 100% for the first, 6.51% for the second.

Compared with B3, B4 is lower in “Agonistic activity compared to B, antibody 30 µg/mL” value: 15.8% for the first, 1.1% for the second.

Going from B5 to B6, the “Agonistic activity compared to B, antibody 30 µg/mL” value rises from 24.2% to 24.6%.

Compared with B1, B2 is lower in “Agonistic activity compared to Ctrl, antibody 6 µg/mL” value: 347% for the first, -4.41% for the second.

Compared with B3, B4 is lower in “Agonistic activity compared to Ctrl, antibody 6 µg/mL” value: 11.1% for the first, -7.68% for the second.

First: B5
Second: B6
The “Agonistic activity compared to Ctrl, antibody 6 µg/mL” value of the first is higher: 66.1% for the first, 48.3% for the second.

Compared with B1, B2 is lower in “Agonistic activity compared to Ctrl, antibody 30 µg/mL” value: 380% for the first, 24.7% for the second.

First: B3
Second: B4
The “Agonistic activity compared to Ctrl, antibody 30 µg/mL” value of the first is higher: 59.8% for the first, 4.19% for the second.

Compared with B5, B6 is higher in “Agonistic activity compared to Ctrl, antibody 30 µg/mL” value: 91.7% for the first, 93.5% for the second.

First: B1
Second: B2
The “hIL-6 (pg/mL), antibody 6 µg/mL” value of the first is 4.7-fold higher: 4520 pg/mL for the first, 968 pg/mL for the second.

B3 and B4 are within 1.5-fold of each other in “hIL-6 (pg/mL), antibody 6 µg/mL” value: 1130 pg/mL for the first, 935 pg/mL for the second.

B5 and B6 are within 1.5-fold of each other in “hIL-6 (pg/mL), antibody 6 µg/mL” value: 1680 pg/mL for the first, 1500 pg/mL for the second.

Going from B1 to B2, the “hIL-6 (pg/mL), antibody 30 µg/mL” value falls from 4340 pg/mL to 1130 pg/mL (3.8-fold).

First: B3
Second: B4
The “hIL-6 (pg/mL), antibody 30 µg/mL” value of the first is 1.5-fold higher: 1450 pg/mL for the first, 944 pg/mL for the second.

B5 and B6 are within 1.5-fold of each other in “hIL-6 (pg/mL), antibody 30 µg/mL” value: 1740 pg/mL for the first, 1750 pg/mL for the second.

Molecular target: T1, CD3 epsilon homodimer protein (UniProt P07766 23-126)
T1 construct: Construct of the homodimer protein is not described; also called CD3 (CD3 epsilon)
Assay: SPR (Biacore T200), CD3 epsilon homodimer on CM4 chip, one-arm antibody as analyte; ratio to unaltered CE115HA000;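 also: surface plasmon resonance run at 25 °C with HBS-EP+ as running buffer, CD3 epsilon homodimer attached by amine coupling, antibody passed over as analyte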

T1 sequence (P07766 23-126): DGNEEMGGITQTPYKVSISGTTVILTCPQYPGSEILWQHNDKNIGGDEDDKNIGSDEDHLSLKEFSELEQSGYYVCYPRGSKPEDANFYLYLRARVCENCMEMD

For B7, the “KD ratio (KD value of CE115HA000/KD value of the altered form)” value was 0.59.
